Assay results reported in patent US20180125924A1 (NORTHWESTERN UNIVERSITY, published 2018).
Groups on a side chain read outwards from the residue. No end group written: not given here. *: point of attachment. triazole = 1,2,3-triazole formed by click reaction linking the lysine-side-chain spacer to the azidoethyl glycoside; Palmitoyl = CCCCCCCCCCCCCCCC(=O)*

Target: recombinant human BMP-2 obtained from Medtronic Sofamor Danek (human, UniProt P12643 283-396)
Assay: cell-based or functional assay

recombinant human BMP-2 obtained from Medtronic Sofamor Danek, sequence (P12643 283-396 limits assumed): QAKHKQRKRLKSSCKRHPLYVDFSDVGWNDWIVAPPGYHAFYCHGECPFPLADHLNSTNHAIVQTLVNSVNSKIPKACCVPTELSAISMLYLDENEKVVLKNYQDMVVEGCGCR

B1: 3,4,6S-GlcNAc PA (PA 1) nanofibers (peptide)
peptide: Palmitoyl-VVAAEEK([COCH2(O(CH2)2)2NHCO(CH2)2-triazole-ethyl-2‑acetamido‑3,4,6‑tri‑O‑sulfo‑2‑deoxy‑beta‑D‑glycopyranoside])
modifications: also: self-assembled nanofibers
  ALP activity in C2C12 cells treated with BMP-2 (75 ng/mL) and PA nanofibers (25 uM): 9 fold
